From the NTF2 design screens of Basanta et al. (2020)

Test: protease stability score; higher = more stable; yeast display proteolysis, trypsin and chymotrypsin;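 further: relative to predicted unfolded state with 0 unfolded-like and 1 meaning tenfold more protease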

Row | Sequence | protease stability score
1 | NELQYKILHALRLFVESLLTGDPTTIERLLDPDARNQWDGVHHVGMEEWSRFLEELRIQIHDLEFKHIEIVDGQLRVDGREDMIIDVNGVRTRTNRKLRLIIVKFDGRWRIESVKVE | 1.22
2 | NELTEVIRYWIHLWLTQLFTGNEEIIRRLADPNARFEVNGREIHGMDEWVDILKRLGMRFHHFHVDTIEIIDGVIHVQSRFDIDINGRRVNEETYHVIEKINGRWTLRTMELR | 2.31
3 | NEMDEHARHFAELFLRLMRTGDEETTEKLADPHVKVVIGDFEFHGWKMLSIFLREIRIHDIRLEDHRTQGNKSIIHGRTDGEINGQRYETELYIELHLVNGRLKSMRFEWR | 0.698
4 | NEMEEYVERASRFVYELLQTGDWEKLMNNMDPNVKIRQGNKEYHGREELKRQLEELFKNWGFDRIDVEHHEIKIFENHAHIIHIMRFDGVEHELRIKALKVNGQWLFKTVEIRLH | 1.36
5 | NEMHDFAKLAIELLLKSLKTGDEHTLEHLLDPNVRMNIDGRRWHGRENWVKRVHDLGITTRDFKLTDVKNQGNKVHIDGHAVEEVNGQRIERRVEIISVKIDGKWEIEEIRIE | 1.02
6 | NEMHEHAREFLERWKEWMHTGDEETMSKLADPHVRNEYNGVIRVGMEALEKVIRELRVRRTHDHHEHIEFQGDKLHIHVDQESDIEINGVRHRVRIHFDIISVKINGKWTLKSIRLTFH | 1.41
7 | NERDERVEELMKLWFESLRTGDWRQMRNLLDPHARVIMLVGDKHVELHGWEAMLLLIHQFRNIRLRIDSTRLQGDKLEIEGTSEFDGKHRNVVIEIQVINGRIHTIKYIED | 2.1
8 | NEREEHIRRLAELVRELIDTGDFDRLIKNADPNVRLEMEIGDKRIEHHGRERVHEQLEEFERRFKNATFIWKRIDVQGEKVLLDGTIRINGQEHEMHWDNQMFNGRIHSIRIDVR | 2.2
9 | NEREKLVLDLAMRWFEAWLTGDEHLLHLLADPNVRFIYGDKHLIGMDELHRFLREIRIISRDRHFEDKRVIGDKVELDVRLRGEVDFNGRRLDIDLTVHIESHIINGKQHTSRMETI | 1.07
10 | NEREKWAVDMFEILVHLFFTGDEEIMAHMADPNTQIHYGEYHHHGRDHLRELLREEFKRVDHVEWRLDTVRIIDGRVLIHSHVIHKVGEKTIKREYVIILLKVNGQWHIKHIEIR | 1.46
11 | NERKKFIEELARLYFKWWLTGDFENLLRNADPNTRIDVNGREIIGREKFVEELREHVDKFKNIREDLHDMDLQGDKVILHIRMNVDGKTIEVRVEIFVINGQIRSESWRFE | 1.34
12 | NERTEEIEEAMERMLEWWRTGNFEDINKNLDPNMRTHVFIDGREVLFHGRELMLEIFDRMGVDHIEVTHFDVIGNKVEVHSRSHQGDKHVDIKLVLEKIDGRWILSQIHIRIE | 1.94
13 | NESEELYRIALELKRETDKTGDEEIFRKLMDPSTRLEVDGRIWHGREAVEVFIRRFDHLHRFEVKDTRVFDGQVQIEGELDSTVGDKRLNVHIEVFAIKFDGRWRLKSVRVE | 1.58
14 | NETEELLRRMIEDNLRAMLTGDEERIRKLADPNVRNHINGRTHVGREELAHVFHRIFEEWRIDHMTLRDSDTQGEFIILHYIFDIRFDGRRQELEVEIIFYKIDGRWILHKITFK | 0.75
15 | NEVDEWVEEAVHLLEEILETGDFRELSNYFDPRVRIDINGRDYHGRELALEQLLRWIEDLGVKHFDHYEIHDREIQGEKVNLNIEITLTFDGRRHTIHHNFHMEKVNGKWVIESIHIR | 1.19
16 | NEVEDEIKHLLEHLLHSHDTGDWHDLVRLADPNVRVNINGKHFHGREDVEEVIKRLGIKHIRIHHVEVQGDKIHIDGNMHFDGRVYETHIDAKKIDGRWIMHNLEVR | 1.4
17 | NEWKEKFERFTRLLLTALMTGNEELLTKMVDPHVKVDIIINGQHIEHHGMERVIEMLTQLRVDRWRIKHIDIQGDKLHVNIHLDIKYDGRREETRTEIRLIIYDGVVHEIEIHLH | 1.99
18 | NEWQEILLRISEKILKDLFTGNEEVWEKLVDPDAQVHINGKEVHGREEALHFLKELKDELRVEHLFIRDVKLQGDKVSLTSESRGNVNGVRRDMKVEIIVIVINGRVKHEKFIII | 1.37

Row | Sequence | protease stability score
19 | NHDEEHLKRLLEDEREMLETGNEDEIRRLLDPHVRLDIDGRNIHGREEVAKWMVKLALRVDVFIIRVKRFHIQGDYIYFDTHIEEIVNGQHISFDVMIIIWKYNGRWLIHSIIVR | 1.58
20 | NHDEEKTHEFKEKWMKDVTTGNEEEISKLMDPNAKIVVNGREYHGREKMWETIHRLLKILGISRVEVRIESVHIYDGRIEIHMRVHAENHESHIIVHVEKIDGRWSSKHLRID | 0.968
21 | NHEEEERHETFRIFLESVRTGDWKNTEKLLDPNARQVWNGKVLHGRESVIEVMRELRVDSLDVKSFDIQGEKAIMHGESEGVFNGKRLNMTLETHLVKVDGKWFLRELVII | 1.23
22 | NHEEEHAKTLFEEWLRVLLTGDWKMFSHLADPHTRIHIGNKDIHGRDLFVELVIRELEEIRVILIVEELSAQGDKSRMRTRLIIRQGEFEHRTELRLEIVFVDGKFTSIHLRHK | 0.599
23 | NHLEEVKDLAIELSWKLMHTGNEELSDRNADPNTRLEFNGVEFVGREWFRQFISEMGVKHIRIDDIDMFDGRMRLDGTFNFNGQEIKVTVFTRKVDGRWRIKSLKFD | 1.6
24 | NHQQIAFHFLWDIVEYLLMTGDEHILEKYADPTVKTLVDGRELHGREDVIRFFHEMFKRIDHIQDVKLHDYRFQGNKVEIDSRIIGTIDGQRDVITVTWRVLKVDGRWLIHTVELH | 1.69
25 | NKHERDAEHFIKEWWHDVHTGDEDHYLKRLDPNMRVDINGQEFHGREKVLTFFHEHSRHLGIDHLIIDHVRIRVQGNKIEEEVEGENVFNGKRLEVRFHFVARKIDGRWELEHLTVRIS | 0.724
26 | NKMDEYAYKMLELWLEAFLTGDFEFIEKNLDPHVRSRINGVELIGRHLYLEMVRREMEEIRVKDVHPRRVEIIDGVVHFHGEWNGQVNGRETHKEHEVEIIVVNGRLKSVIFRIR | 1.27
27 | NKMMEEIHHWLRLLIENEITGDEEKSLHLADPEARIDFDGVEIHGWERFLKFVEEKLKLLGARVEDIKIHDYRIIDGRLHIDSRVHIEINGVRQTREREIVSRKVNGRWLVNSLHFR | 0.607
28 | NMDEKLKRWAIEDHIKSDETGDENMKEHYMDPNVRIDIGDYELHGREAAIRDIRRIRHEMGVKVMHVEIEHVDVQGEKIRIHSRLIFEINGKEVRHETNIIYSKFDGRWVLKHESIK | 0.102
29 | NREDRELEDFIWEILEAWRTGDEDEHHRLLDPHTRHHFNGRVSHGREMVEYIFKQFDHIHRFEYRDFSVQGNKAHVFAQVDVRIGDKIITFDVTIEVEKVNGRWVLRELSIH | 1.31
30 | QDIDHQLERAVKEILETFITGDESLASHLFDPDVRVIQGDKHIHGREEVTKVFYEFVKRADHVEIRMREVESQGDIIDIETELILRIGDKEVRHRVRLIVVKYNGKWHIKSMEVD | 2.72
31 | QEDEDFVRWALHVFMRYVLTGDEESLERLLDPDVRITVGNKHLHGMENATNELRHMSKQVDHIHDLRFHDVRSINGRIHETGIDDGIINGRRIHRESILVIEKVNGRWHFHSIRVL | 0.836
32 | QEDEKLADEVVERIAHDIHTGDEDSLRHLMDPHVRLQVGDKRYIGRESVLEFLRQLRIEVEDVKIHDIHVVNGQMHSDTRIHGRIFVNGRDIETTLRSKHILLKYDGKWLWHSWHIH | 1.31
33 | QEDRERAERIINELMENELTGDEDRLRELADPRVRVEYDGQEHIGMELRSTWIKEMRFDHIHVDIDEFEFQGNKIHIKARFHIDVNINGRKRRYTVETFLVMKKINGVWFIKDIVFH | 1.36
34 | QEEEEFVRKFVHEVIRALMTGDEHRMHELLDPHVISSRHIGDKHVHYHGREEVLRHLHEWLTHLRIKSLEIRSHKAFDGRMIVHGTLFGQQGDKDVEFEVIIDLEVINGRIKHFHVELR | 1.32
35 | QEELDIAREMIKMWTHHLETGDEEVTKHLADPTTRFIIDGVTYHGMHNTVRLWLEIRSHSRIRIRFVEVQGNKVNSDVELEYDLIVGEKTDTIIRRSHLYLHKVDGRWRIKEIEFR | 1.12
36 | QEYDEHIEELWRDFVHAMITGDEDRLSELMDPDTRILVGDKHLVGWDRALRFLHEHIREIRPTDFKLRDIRFFDGRIHVDTEMRLVVNGQEVHKKTHLIVYKYDGRWHIEAIIEH | 2.24
